Where two headings read alike, the source gives them in different places.
Tests used:
[1] = biological target: T1, P-TEFb/AFF4/Tat(1-57) core super elongation complex (CDK9/CycT1/AFF4/Tat) (Homo sapiens (CDK9, CycT1, AFF4)?; HIV-1 (Tat)) (UniProt P50750+O60563+Q9UHB7+P04608); conditions: CITED mutational data (apparently), cited from earlier work
[2] = biological target: T1, P-TEFb/AFF4/Tat(1-57) core super elongation complex (CDK9/CycT1/AFF4/Tat) (Homo sapiens (CDK9, CycT1, AFF4)?; HIV-1 (Tat)); assay: EMSA; conditions: 250x yeast tRNA

Sequence: GGCAGAUCUGAGCCCAAAAGCUCUCUGCC [HIV-1 TAR loop mutant UGGG to CAAA]
- Kd ([1]; [15-18], CAAA loop): > 10000 pM

Sequence: GGCAGAUCUGAGCCUGGGAGCUCUCUGCC [HIV-1 TAR]
- Kd ([2]; 0.5 nM RNA, 0-90 nM complex, 6% native gel): 340 pM
- Kd ([2]; TAR preincubated with 10 nM Palbociclib): 35600 pM
- Kd ([1]; wild-type UGGG loop): 230 pM
